The nanobody polyreactivity screen of Harvey et al. (2022)

Test: yeast display, Sf9 membrane polyspecificity reagent, FACS + sequencing; frameworks hold sequencing errors
Summary of the method: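 In a synthetic yeast display library (Saccharomyces cerevisiae BJ5465), nanobody expression was induced with galactose for 36–48 hours. FACS gates were set low and high (top ~1%) using anti-HA fluorescence for expression and streptavidin fluorescence for binding of the Sf9 membrane reagent. Each polyreactivity label is drawn from the gate of origin.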

Sequence	polyreactivity (PSR sort gate)
QVQLVESGGGLVQAGGSLRLSCAASGRIFRGNAMGWYRQARGKERELVAGISVRGGRTYYADSVKGRFTISRDNAKNTVYLQMNSLKPEDTAVYYCAAVFWDDYGKYYYWGQGTQVTVSS	high polyreactivity
QVQLVESGGGLVQAGGSLRLSCAASGRIFRGYAMGWYRQAPGKERELVAAIDTDTGITYYADSVKGRFTISRDNAKNTVYLQMNSLKPEDTAVYYCAAETYYAVSTGYYFDYWGQGTQVTVSS	high polyreactivity
QVQLVESGGGLVQAGGSLRLSCAASGRIFRGYAMGWYRQAPGKERELVAAISGSGGSTYYADSVKGRFTISRDNAKNTVYLQMNSLKPEDTAVYYCNAGWYFYGETTDDYWGQGTQVTVSS	low polyreactivity
QVQLVESGGGLVQAGGSLRLSCAASGRIFRGYAMGWYRQAPGKERELVAAITTNGGSTYADSVKGRFTISRDNAKNTVYLQMNSLKPEDTAVYYCAARRVGWARGSGNYDYWGQGTQVTVSS	low polyreactivity
QVQLVESGGGLVQAGGSLRLSCAASGRIFRGYAMGWYRQAPGKERELVATINASGGTTYYADSVKGRFTISRDNAKNTVYLQMNSLKPEDTAVYYCNARYRRFFSGYGYWGQGTQVTVSS	high polyreactivity
QVQLVESGGGLVQAGGSLRLSCAASGRIFRINAMGWYRQAPGKERELVATITSGGGSTYADSVKGRFTISRDNAKNTVYLQMNSLKPEDTAVYYCAARSRIGRYTYDYWGQGTQVTVSS	high polyreactivity
QVQLVESGGGLVQAGGSLRLSCAASGRIFRIYAMGWYRQAPGKERELVASITWRGGRTYYADSVKGRFTISRDNAKNTVYLQMNSLKPEDTAVYYCAATSSTSYYWGQGTQVTVSS	high polyreactivity
QVQLVESGGGLVQAGGSLRLSCAASGRIFRKYTMGWYRQAPGKERELVAAISRNGGDTYYADSVKGRFTISRDNAKNTVYLQMNSLKPEDTAVYYCNARTPTDSTHFDYWGQGTQVTVSS	low polyreactivity
QVQLVESGGGLVQAGGSLRLSCAASGRIFRLYAMGWYRQAPGKERELVAAIRVSGNTYYADSVKGRFTISRDNAKNTVYLQMNSLKPEDTAVYYCAAKPYYFYGMDYWGQGTQVTVSS	high polyreactivity
QVQLVESGGGLVQAGGSLRLSCAASGRIFRLYAMGWYRQAPGKERELVAAITSSGSSTYYADSVKGRFTISRDNAKNTVSLQMNSLKPEDTAVYYCNARYTYPYHFGYWGQGTQVTVSS	high polyreactivity
QVQLVESGGGLVQAGGSLRLSCAASGRIFRNTMGWYIQAPGKERELVAAITDTTDSTYYADSVKGRFTISRDNAKNTVYLQMYSLKPEDTAVYYCAARYGGYVNRPYYYWGQGTQVTVSS	low polyreactivity
QVQLVESGGGLVQAGGSLRLSCAASGRIFRPNAMGWYRQAPGKERELVAAMTSGGSTNYADSVKGRFTISRDNAKNTVYLQMNSLKPEDTAVYYCAKGYKYGKNIYYYWGQGTQVTVSS	high polyreactivity
QVQLVESGGGLVQAGGSLRLSCAASGRIFRPYAMGWYRQAPGKERELVAAITQSGGITSYADSVKGRFTISRDNAKYTVYLQMNSLKPEDTAVYYCAADDFTTAGFGMDYWGEGTQVTVSS	low polyreactivity
QVQLVESGGGLVQAGGSLRLSCAASGRIFRPYTMGWYRQAPGKEWELVAAISIGGRTYYADSVKGRFTISRDNAKNTVYLKMNSLKPEDTAVYYCAAVGGSDRRARPGRAVDYWGQGTQVTVSS	high polyreactivity
QVQLVESGGGLVQAGGSLRLSCAASGRIFRRKTMGWYRQAPGKERELVAAITSRGGSTYYADSVKGRFTISRDNAKNTFYLKMNSLIPEDTGFYYCNTRVVPEIYDYWGQGSQVTVSS	high polyreactivity
QVQLVESGGGLVQAGGSLRLSCAASGRIFRRNTMGWYRQAPGIERELVAAITSSGGSTYADSVKGRFTISRDNAKNTVYLQMNSLKPEDTAVYYCATYVAYHRGYRTYDHWGQGTQVTVSS	low polyreactivity
QVQLVESGGGLVQAGGSLRLSCAASGRIFRRYAMGWYRQAPGKERELVAAISSGGGSTYYADSVKGRFTISRDNAKNTVYLQMNSLKPEDTAVYYCNTDFYYDDVSQAHDYWGQGTQVTVSS	high polyreactivity
QVQLVESGGGLVQAGGSLRLSCAASGRIFRRYAMGWYRQAPGKERELVASISLSGGSTYYADSVKGRFTISRDNAKNTVYLQMNSLKPEDTAVYYCAAVIRAYATRATYNSWGQGTQVTVSS	high polyreactivity
QVQLVESGGGLVQAGGSLRLSCAASGRIFRRYAMGWYRQAPGKERELVASITWGGSSTSYADSVKGRFTISRDNAKNTVYLQMNSLKPEDTAVYYCNADFPTAIPYGYDYWGQGTQVTVSS	low polyreactivity
QVQLVESGGGLVQAGGSLRLSCAASGRIFRRYAMGWYRQAPGKERELVSAITSGSSTYYADSVKGRFTISRDNPKNTVNLQMISVKPEYSAVYYCAALGYTYKYYSYYWGHGTQVTVSS	high polyreactivity
QVQLVESGGGLVQAGGSLRLSCAASGRIFRRYVMGWYRQAPGKERELVARIRIRDSNTYYADSVKGRCTISRDNAKNTVYLQMNSLKPEDTAVYYCAVVANYVYSKYDYWGQGTQVTVSS	low polyreactivity

Sequence	polyreactivity (PSR sort gate)
QVQLVESGGGLVQAGGSLRLSCAASGRIFRRYVMGWYRQAPGKERELVARIRIRDSNTYYADSVKGRFTISRDNAKNTVYLQMNSLKPEDTAVYYCAVVANYVYSKYDYWGQGTQVTVSS	low polyreactivity
QVQLVESGGGLVQAGGSLRLSCAASGRIFRSNAMGWYRQAPGKERELVAVINSDDSTYYADSVKGRFTISRDNAKNTVYLQMNCLKPEDTAVYYCAAEPQYTRHMDSWGQGTQVTVSS	low polyreactivity
QVQLVESGGGLVQAGGSLRLSCAASGRIFRSNAMGWYRQAPGKERELVAVINSDDSTYYADSVKGRFTISRDNAKNTVYLQMNSLKPEDTAVYYCAAEPQYTRHMDSLGQGTQVTVSS	low polyreactivity
QVQLVESGGGLVQAGGSLRLSCAASGRIFRSYALGWYRQAPGKERELAAAISYGGGSTYYADSVKGRFTISRDNAKNTVYLQMNSLKPEDTAVYYCAARGYSRPMDYWGQGTQVTVSS	high polyreactivity
QVQLVESGGGLVQAGGSLRLSCAASGRIFRSYAMGWYRQAPGKERELVAAITGSTGSTSYADSVKGRFTISRDNAKNTVYLQMNSLKPEDTAGYYCNAEYSSGYGQSHTYFYEYDYWGHGTQVTVSS	low polyreactivity
QVQLVESGGGLVQAGGSLRLSCAASGRIFRVYAMGWYRQAPGKERELVAAISSGGSTNYADSVKGRFTISRDNAKNTVYLQMNSLKPEDTAVYYCAATVRGVGYRYYYWGQGTQVTVSS	high polyreactivity
QVQLVESGGGLVQAGGSLRLSCAASGRIFRVYAMGWYRQAPGKERELVAAISSRGGRTYYADSVKGRFTISRDNAKNTVYLQMNSLKPEDTAVYYCAADGRSCSRTTSRYDYWGQGTQVTVSS	high polyreactivity
QVQLVESGGGLVQAGGSLRLSCAASGRIFRYNAMGWYRQAPGKERELVAAISGTGDRTYYADSVKGRFTISRDNAKNTVYLQMNSLKPEDTAVYYCAARGLFFRNRYGYWGQGTQVTVSS	high polyreactivity
QVQLVESGGGLVQAGGSLRLSCAASGRIFRYNAMGWYRQAPGKERELVAAISRGDGSTYYADSVKGRFTISRDNAKNTVYLQMNILKPEDTAVYYCAAAWSFIYFQHPAFKYDYWGQGTQVTVSS	low polyreactivity
QVQLVESGGGLVQAGGSLRLSCAASGRIFRYNAMGWYRQAPGKERELVAAISWSGGSTYADSVKGRFTISRDNAKNTVYLQMNSLKPEDTAVYYCAADSSDLYVWGYDHWGQGTQVTVSS	low polyreactivity
QVQLVESGGGLVQAGGSLRLSCAASGRIFRYNAMGWYRQAPGKERELVAAISWTVGRTYYADSVKGRFTISRDNAKNTVYLQMNSLKPEDTAVYYCATDVGYYRKYEYYYWGQGTQVTVSS	high polyreactivity
QVQLVESGGGLVQAGGSLRLSCAASGRIFRYNAMGWYRQAPGKERELVAAITNSCSTNYADSVKGRFTISRDNAKNTVYLQMNSMKQEDTAVYYCAARARFYGGRSYDYWGQGTQVTVSS	high polyreactivity
QVQLVESGGGLVQAGGSLRLSCAASGRIFRYNAMGWYRQAPGKERELVAAITSGTGTNYADSVKGRFTISRDNAKNTVYLQMNSLKPEDTAVYYCNKDRKSYRYDYWGQGTQVTVSS	low polyreactivity
QVQLVESGGGLVQAGGSLRLSCAASGRIFRYNGMGWYRQAPGKERELVAVITPRSGTTSYADSVKGRFTISRDNAKNTVYLQMNSLKPEDTAVYYCAADSDWYPSPYDYWGQGTQVTVSS	high polyreactivity
QVQLVESGGGLVQAGGSLRLSCAASGRIFRYNIMGWYRPAPGKERELVAAIRQIGGSTYYADSVKGRFTISRDNAKNTVYLQMNSLKPEDTAVYYCAADSTVEATPFFVEYDYWGQGTQVTVSS	low polyreactivity
QVQLVESGGGLVQAGGSLRLSCAASGRIFRYYAIGWYRQAPGKERELVAVITSSGGSTYYADSVKGRFTISRDNAKNTVYLQMNSLKPEDTAVYYCAKDHRSYWGQGTQVTVSS	high polyreactivity
QVQLVESGGGLVQAGGSLRLSCAASGRIFRYYAKGWYRQAPGKERELVAAIRSASSTYYADSVKGRFTISRDNAKNTVYLQMNSLKPEDTAVYDCAAGLYGVYNRRYYYWGQGTQVTVSS	high polyreactivity
QVQLVESGGGLVQAGGSLRLSCAASGRIFRYYAMGWYRKAPGKERELVASISQRGGSTYYADSVKGRFTISRDNAKNTVYLQMNSLKPEDTAVYYCAARRSTVFILDYDWGQGTQVTVSS	high polyreactivity
QVQLVESGGGLVQAGGSLRLSCAASGRIFRYYAMGWYRPAPGKERELVAAITWRGDSTYYADSVKGRFTISRDNAKNTVYLQMNSLKPEDTAVYYCNKRWTDKYDSWGQGTQVTVSS	high polyreactivity
QVQLVESGGGLVQAGGSLRLSCAASGRIFRYYAMGWYRQAPGKEMELVAAITRGGSTNYADSVKGRFTISRDNAKNTGYLQMNSLKPEDTAVYYCATRQSWYPRWMDYWGQCTQVTVSS	high polyreactivity
